Measured values reported in article PMC6112861 (Nature, 2018).

T1: Stt3 (S. cerevisiae, UniProt P39007 1-718, N-glycan at Asn539)
T1 sequence (looked up): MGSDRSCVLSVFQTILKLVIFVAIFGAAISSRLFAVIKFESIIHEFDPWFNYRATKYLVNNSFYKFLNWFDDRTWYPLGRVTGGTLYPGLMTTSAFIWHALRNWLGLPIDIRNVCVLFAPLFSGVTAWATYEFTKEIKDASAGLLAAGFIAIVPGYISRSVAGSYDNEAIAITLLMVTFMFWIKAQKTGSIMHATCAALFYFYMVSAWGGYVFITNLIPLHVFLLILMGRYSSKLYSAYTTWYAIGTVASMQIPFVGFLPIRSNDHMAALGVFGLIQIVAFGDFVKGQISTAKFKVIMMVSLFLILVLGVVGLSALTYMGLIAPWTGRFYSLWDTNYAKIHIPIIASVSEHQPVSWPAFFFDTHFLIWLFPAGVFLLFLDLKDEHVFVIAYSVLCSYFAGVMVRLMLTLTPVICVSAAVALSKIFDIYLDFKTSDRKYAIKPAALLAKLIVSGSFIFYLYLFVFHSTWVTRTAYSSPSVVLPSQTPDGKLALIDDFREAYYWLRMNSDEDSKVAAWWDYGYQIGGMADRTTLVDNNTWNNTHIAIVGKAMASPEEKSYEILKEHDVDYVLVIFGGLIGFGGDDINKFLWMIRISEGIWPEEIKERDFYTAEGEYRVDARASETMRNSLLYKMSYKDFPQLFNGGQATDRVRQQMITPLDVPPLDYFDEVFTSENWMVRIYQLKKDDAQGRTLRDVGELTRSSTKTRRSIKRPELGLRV

B1: Wbp1 (natural protein, S. cerevisiae, UniProt P33767 21-430, looked up)
chain: TQTSRTLVLYDQSTEPLEEYSVYLKDLEQRNYKLEYLDINSTSTTVDLYDKEQRLFDNIIVFPTKGGKNLARQIPVKQLIKFFENEGNILCMSSPGAVPNTIRLFLNELGIYPSPKGHVIRDYFSPSSEELVVSSNHLLNKYVYNARKSEDFVFGESSAALLENREQIVPILNAPRTSFTESKGKCNSWTSGSQGFLVVGFQNLNNARLVWIGSSDFLKNKNQDSNQEFAKELLKWTFNEKSVIKSVHAVHSHADGTSYDEEPYKIKDKVIYSVGFSEWNGEEWLPHIADDIQFELRQVDPYYRLTLSPSGNDSETQYYTTGEFILPDRHGVFTFLTDYRKIGLSFTTDKDVKAIRHLANDEYPRSWEISNSWVYISAICGVIVAWIFFVVSFVTTSSVGKKLETFKKTN
modifications: N-glycan at Asn60
B2: Ost3 (natural protein, S. cerevisiae, UniProt P48439 23-350, looked up)
chain: MSSNRLLKLANKSPKKIIPLKDSSFENILAPPHENAYIVALFTATAPEIGCSLCLELESEYDTIVASWFDDHPDAKSSNSDTSIFFTKVNLEDPSKTIPKAFQFFQLNNVPRLFIFKPNSPSILDHSVISISTDTGSERMKQIIQAIKQFSQVNDFSLHLPMDWTPIITSTIITFITVLLFKKQSKLMFSIISSRIIWATLSTFFIICMISAYMFNQIRNTQLAGVGPKGEVMYFLPNEFQHQFAIETQVMVLIYGTLAALVVVLVKGIQFLRSHLYPETKKAYFIDAILASFCALFIYVFFAALTTVFTIKSPAYPFPLLRLSAPFK
B3: Ost5 (natural protein, S. cerevisiae, UniProt Q92316 1-86, looked up)
chain: MTYEQLYKEFHSSKSFQPFIHLDTQPKFAICGLIVTLAVLSSALFAVGSKSSYIKKLFFYTILSVIGSLFAGLTTVFASNSFGVYV
B4: Ost2 (natural protein, S. cerevisiae, UniProt P46964 1-130, looked up)
chain: MAKAPKANTPKVTSTSSAVLTDFQETFKTSKRAYFAQIEKYPKLKLIDTFCFFLVLLGVIQCTFIILIRDNFPFNAFLAGFIICVGQFVLLMSLRLQLCNSFPGISKNRAFAEFIVASLILHFVCLHFIN
B5: Ost1 (natural protein, S. cerevisiae, UniProt P41543 23-476, looked up)
chain: AQYEPPATWENVDYKRTIDVSNAYISETIEITIKNIASEPATEYFTAFESGIFSKVSFFSAYFTNEATFLNSQLLANSTTAPGDDGESEIRYGIIQFPNAISPQEEVSLVIKSFYNTVGIPYPEHVGMSEEQHLLWETNRLPLSAYDTKKASFTLIGSSSFEEYHPPNDESLLGKANGNSFEFGPWEDIPRFSSNETLAIVYSHNAPLNQVVNLRRDIWLSHWASTIQFEEYYELTNKAAKLSKGFSRLELMKQIQTQNMRQTHFVTVLDMLLPEGATDHYFTDLVGLVSTSHAERDHFFIRPRFPIFGGWNYNFTVGWTNKLSDFLHVSSGSDEKFVASIPILNGPPDTVYDNVELSVFLPEGAEIFDIDSPVPFTNVSIETQKSYFDLNKGHVKLTFSYRNLISQVANGQVLIKYDYPKSSFFKKPLSIACYIFTALMGVFVLKTLNMNVTN
modifications: N-glycan at Asn336
B6: Swp1 (natural protein, S. cerevisiae, UniProt Q02795 20-286, looked up)
chain: YVAQDVHVSFPSTAGKSRVMIGKVEPRIGIDETVPTTITVEDPNEVIQVNFAIESTNKPFQNTLLIGLPNKNLEMAFEPEIKDNGKLSMYKYRIDLAKLDAALLQEASRSPEPIKATLILASSTAKPKENLFREILQLNLNFDVDHSDSSLVDKFGIKPEIHHIFHAEPKRVAKPIAVIFVLIIFITILSLIVTWLNSCAAAFNNIPTGVTAVYFLGFIATIVGFEVIFARYYLGTSIFETLFSSLYLGAPGLLTSTKFLRSFGQTI

How the values were obtained:
Test in all cases: cryo-EM structure
[1] = biological target: T1, Stt3
[2] = biological target: B5
[3] = biological target: B1
[4] = biological target: B6

| binding result [1] | binding result [2] | binding result [3] | binding result [4] | Binder |
| --- | --- | --- | --- | --- |
| binds | – | – | – | B1 |
| binds | – | – | – | B2 |
| – | binds | – | – | B3 |
| binds | – | binds | binds | B4 |
| binds | – | – | – | MISDEQLNSLAITFGIVMMTLIVIYHAVDSTMSPKN (natural protein, S. cerevisiae) [Ost4-FLAG] |
| binds | – | – | – | B5 |
| binds | – | binds | – | B6 |
